Reference: the supplement of paper PMC10065799, “High-throughput profiling of sequence recognition by tyrosine kinases and SH2 domains using bacterial peptide display” (eLife, 2023)

Columns and labels:
c-Src SH2 = test: SH2 binding enrichment of the phosphorylated peptide, bacterial display (enrichment ratio); higher = better substrate or ligand; peptides without Tyr show the background
SHP2-C SH2 = test: as above
Grb2 SH2 = Grb2 SH2 (UniProt P62993); test: as above
EPHB2 = EPHB2 (UniProt P29323); test: phosphorylation enrichment, bacterial display (enrichment ratio); higher = better substrate or ligand; peptides without Tyr show the background
Hck = Hck (UniProt P08631); test: as above
Fyn = Fyn (UniProt P06241); test: as above
AncSZ = test: as above
c-Abl (mouse) = test: as above
Jak2 = Jak2 (UniProt O60674); test: as above
EPHB1 = EPHB1 (UniProt P54762); test: as above
Fer (mouse) = test: as above
MERTK = MERTK (UniProt Q12866); test: as above
FGFR1 = FGFR1 (UniProt P11362); test: as above
FGFR3 = FGFR3 (UniProt P22607); test: as above
c-Src = test: as above
Fes = Fes (UniProt P07332); test: as above
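Wherever SH2 binding enrichment of the phosphorylated peptide, bacterial display is given: peptide library displayed on the E. coli surface as eCPX fusions, selected cells deep-sequenced, score is each peptide's frequency after selection divided by its frequency in the input.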
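Wherever phosphorylation enrichment, bacterial display is given: 11-residue human phosphosite peptides and single-mutation variants displayed on the E. coli surface, counted by deep sequencing, each peptide's frequency after selection divided by its frequency in the unselected input library; frequency after pTyr selection over input frequency; kinase dosed for 20-30% of maximal phosphorylation in three min.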

Chain of Hck (P08631 whole entry, looked up): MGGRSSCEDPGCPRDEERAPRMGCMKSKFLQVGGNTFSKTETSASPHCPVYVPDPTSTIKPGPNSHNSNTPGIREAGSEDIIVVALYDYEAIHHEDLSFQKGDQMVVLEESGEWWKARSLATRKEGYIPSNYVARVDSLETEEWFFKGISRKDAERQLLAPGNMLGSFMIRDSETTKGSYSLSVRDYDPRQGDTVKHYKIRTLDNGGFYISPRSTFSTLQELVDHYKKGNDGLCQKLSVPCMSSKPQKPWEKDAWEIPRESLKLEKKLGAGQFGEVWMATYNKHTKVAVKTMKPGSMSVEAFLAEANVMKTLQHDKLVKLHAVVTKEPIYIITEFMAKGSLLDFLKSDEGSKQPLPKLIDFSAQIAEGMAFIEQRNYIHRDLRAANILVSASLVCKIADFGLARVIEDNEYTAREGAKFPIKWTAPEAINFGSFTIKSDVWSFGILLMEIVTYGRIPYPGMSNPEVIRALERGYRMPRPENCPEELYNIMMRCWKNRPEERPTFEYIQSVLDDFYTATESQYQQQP
Chain of Fyn (P06241 whole entry, looked up): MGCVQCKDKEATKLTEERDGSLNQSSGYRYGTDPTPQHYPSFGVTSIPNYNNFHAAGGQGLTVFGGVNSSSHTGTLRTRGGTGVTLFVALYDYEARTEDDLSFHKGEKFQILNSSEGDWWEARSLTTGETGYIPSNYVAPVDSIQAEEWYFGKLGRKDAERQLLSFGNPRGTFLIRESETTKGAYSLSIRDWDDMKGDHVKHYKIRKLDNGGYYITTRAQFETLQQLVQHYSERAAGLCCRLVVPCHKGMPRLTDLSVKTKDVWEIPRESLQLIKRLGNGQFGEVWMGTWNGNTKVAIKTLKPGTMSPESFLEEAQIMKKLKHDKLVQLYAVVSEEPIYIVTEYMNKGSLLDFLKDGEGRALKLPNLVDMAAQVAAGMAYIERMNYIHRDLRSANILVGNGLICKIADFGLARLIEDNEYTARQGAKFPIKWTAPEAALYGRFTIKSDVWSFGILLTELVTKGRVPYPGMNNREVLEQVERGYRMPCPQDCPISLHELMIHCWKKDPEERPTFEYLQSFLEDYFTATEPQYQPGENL
Chain of EPHB1 (P54762 whole entry, looked up): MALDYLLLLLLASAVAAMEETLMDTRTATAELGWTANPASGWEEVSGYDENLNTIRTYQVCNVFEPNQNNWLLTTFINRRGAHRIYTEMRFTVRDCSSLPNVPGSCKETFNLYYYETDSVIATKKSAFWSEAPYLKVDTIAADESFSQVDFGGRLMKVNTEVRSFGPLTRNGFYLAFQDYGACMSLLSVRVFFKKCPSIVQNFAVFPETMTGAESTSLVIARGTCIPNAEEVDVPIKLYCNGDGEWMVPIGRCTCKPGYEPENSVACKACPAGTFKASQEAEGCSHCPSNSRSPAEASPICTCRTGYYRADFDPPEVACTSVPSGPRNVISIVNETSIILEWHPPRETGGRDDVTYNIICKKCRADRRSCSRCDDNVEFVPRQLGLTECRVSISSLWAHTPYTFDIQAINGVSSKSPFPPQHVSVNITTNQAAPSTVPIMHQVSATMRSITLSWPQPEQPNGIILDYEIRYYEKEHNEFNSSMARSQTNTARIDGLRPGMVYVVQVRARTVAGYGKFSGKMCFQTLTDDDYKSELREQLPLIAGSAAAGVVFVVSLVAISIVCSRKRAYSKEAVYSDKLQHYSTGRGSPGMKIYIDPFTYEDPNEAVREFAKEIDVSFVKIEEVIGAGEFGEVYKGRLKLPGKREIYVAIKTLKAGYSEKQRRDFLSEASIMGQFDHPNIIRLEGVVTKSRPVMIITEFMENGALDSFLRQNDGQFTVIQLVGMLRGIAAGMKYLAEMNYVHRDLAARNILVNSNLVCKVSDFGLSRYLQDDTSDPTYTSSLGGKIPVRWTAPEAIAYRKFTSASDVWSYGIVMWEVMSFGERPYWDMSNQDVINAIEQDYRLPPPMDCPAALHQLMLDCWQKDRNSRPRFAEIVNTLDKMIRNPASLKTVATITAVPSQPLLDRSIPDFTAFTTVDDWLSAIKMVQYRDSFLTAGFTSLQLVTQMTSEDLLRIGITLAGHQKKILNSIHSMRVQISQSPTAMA
Chain of MERTK (Q12866 whole entry, looked up): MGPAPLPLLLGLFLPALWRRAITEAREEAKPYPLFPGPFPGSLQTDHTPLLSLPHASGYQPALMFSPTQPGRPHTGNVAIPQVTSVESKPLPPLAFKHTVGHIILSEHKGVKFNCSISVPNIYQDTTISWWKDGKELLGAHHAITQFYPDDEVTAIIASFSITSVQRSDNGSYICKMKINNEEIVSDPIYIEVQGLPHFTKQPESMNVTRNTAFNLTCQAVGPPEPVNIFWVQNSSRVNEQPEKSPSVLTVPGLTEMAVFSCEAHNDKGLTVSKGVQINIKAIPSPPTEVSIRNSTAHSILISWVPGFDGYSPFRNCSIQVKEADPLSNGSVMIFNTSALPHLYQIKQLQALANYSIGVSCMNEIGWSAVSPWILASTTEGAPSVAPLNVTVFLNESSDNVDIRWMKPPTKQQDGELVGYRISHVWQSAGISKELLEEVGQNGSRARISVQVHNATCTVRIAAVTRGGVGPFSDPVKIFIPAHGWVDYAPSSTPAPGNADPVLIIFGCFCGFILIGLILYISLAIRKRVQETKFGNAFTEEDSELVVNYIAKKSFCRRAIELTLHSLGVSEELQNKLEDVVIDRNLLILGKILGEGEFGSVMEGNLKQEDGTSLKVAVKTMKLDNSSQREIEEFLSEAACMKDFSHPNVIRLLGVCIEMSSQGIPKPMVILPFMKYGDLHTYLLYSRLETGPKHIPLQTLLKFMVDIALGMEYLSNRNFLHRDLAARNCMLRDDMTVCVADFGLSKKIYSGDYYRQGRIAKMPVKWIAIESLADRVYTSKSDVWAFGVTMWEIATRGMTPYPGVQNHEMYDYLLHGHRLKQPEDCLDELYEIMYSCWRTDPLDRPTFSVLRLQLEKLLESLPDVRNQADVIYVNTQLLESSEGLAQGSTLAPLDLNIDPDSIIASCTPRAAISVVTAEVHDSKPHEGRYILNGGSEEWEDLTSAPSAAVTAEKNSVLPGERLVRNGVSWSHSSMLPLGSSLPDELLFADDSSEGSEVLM
Chain of FGFR1 (P11362 whole entry, looked up): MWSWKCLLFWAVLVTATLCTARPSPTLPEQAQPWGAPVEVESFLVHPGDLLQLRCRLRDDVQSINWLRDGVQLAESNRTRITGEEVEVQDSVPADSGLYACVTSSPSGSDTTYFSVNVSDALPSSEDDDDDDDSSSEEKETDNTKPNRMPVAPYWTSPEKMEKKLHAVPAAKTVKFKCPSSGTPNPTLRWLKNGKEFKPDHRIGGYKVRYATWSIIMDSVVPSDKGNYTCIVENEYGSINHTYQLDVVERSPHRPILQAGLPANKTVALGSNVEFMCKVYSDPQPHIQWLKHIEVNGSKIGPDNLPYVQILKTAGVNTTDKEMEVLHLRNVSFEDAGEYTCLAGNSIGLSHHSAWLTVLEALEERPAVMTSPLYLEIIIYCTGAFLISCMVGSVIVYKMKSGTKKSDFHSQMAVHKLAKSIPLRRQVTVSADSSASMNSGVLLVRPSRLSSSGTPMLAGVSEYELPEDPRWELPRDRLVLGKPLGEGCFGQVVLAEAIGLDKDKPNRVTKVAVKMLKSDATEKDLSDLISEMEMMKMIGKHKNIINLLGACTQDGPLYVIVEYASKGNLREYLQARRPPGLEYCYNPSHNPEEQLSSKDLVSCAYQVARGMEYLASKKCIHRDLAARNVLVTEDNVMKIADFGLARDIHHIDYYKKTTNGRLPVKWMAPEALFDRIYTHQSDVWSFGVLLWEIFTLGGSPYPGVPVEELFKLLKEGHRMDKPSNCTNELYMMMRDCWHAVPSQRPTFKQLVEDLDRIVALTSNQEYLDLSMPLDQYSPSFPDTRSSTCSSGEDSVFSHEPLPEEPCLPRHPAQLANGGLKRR
Chain of Jak2 (O60674 whole entry, looked up): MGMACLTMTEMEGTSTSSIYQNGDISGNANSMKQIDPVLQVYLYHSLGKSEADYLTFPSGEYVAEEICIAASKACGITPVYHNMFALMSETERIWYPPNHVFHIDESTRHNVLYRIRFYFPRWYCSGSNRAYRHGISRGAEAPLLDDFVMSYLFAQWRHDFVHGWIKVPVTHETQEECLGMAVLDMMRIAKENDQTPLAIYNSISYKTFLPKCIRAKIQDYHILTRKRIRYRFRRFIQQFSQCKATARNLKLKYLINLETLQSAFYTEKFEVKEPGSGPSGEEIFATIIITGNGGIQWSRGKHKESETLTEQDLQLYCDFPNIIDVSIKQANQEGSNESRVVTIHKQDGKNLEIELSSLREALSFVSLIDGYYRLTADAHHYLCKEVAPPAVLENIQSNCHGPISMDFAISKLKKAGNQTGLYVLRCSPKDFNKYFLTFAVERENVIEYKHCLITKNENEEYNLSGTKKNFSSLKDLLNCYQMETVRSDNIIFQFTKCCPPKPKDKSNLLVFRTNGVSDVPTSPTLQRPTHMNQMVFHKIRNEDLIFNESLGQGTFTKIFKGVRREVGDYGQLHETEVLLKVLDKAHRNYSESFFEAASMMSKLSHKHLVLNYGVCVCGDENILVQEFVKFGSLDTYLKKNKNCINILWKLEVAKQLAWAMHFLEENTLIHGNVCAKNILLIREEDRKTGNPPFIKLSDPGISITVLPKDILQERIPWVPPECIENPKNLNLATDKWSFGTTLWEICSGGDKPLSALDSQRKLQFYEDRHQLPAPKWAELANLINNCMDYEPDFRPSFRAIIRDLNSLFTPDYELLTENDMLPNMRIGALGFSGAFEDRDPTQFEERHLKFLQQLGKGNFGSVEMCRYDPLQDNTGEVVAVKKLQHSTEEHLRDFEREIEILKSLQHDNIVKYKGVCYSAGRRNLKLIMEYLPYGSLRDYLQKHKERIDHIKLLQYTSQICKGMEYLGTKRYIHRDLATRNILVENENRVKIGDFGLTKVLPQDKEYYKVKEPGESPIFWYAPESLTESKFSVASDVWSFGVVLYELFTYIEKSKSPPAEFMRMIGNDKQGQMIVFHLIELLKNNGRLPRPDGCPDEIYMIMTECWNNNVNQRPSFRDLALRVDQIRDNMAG

Sequence	SH2 binding enrichment (c-Src SH2)	SH2 binding enrichment (SHP2-C SH2)	SH2 binding enrichment (Grb2 SH2)	phosphorylation enrichment (EPHB2)	phosphorylation enrichment (Hck)	phosphorylation enrichment (Fyn)	phosphorylation enrichment (AncSZ)	phosphorylation enrichment (c-Abl (mouse))	phosphorylation enrichment (Jak2)	phosphorylation enrichment (EPHB1)	phosphorylation enrichment (Fer (mouse))	phosphorylation enrichment (MERTK)	phosphorylation enrichment (FGFR1)	phosphorylation enrichment (FGFR3)	phosphorylation enrichment (c-Src)	phosphorylation enrichment (Fes)
SEKIVYGHLDD [ACO2_Y71]	0.56	0.926	0.865	0.556	0.639	0.817	0.829	0.793	0.815	0.499	0.505	0.359	0.432	0.573	0.847	1
FSPPFYHRNCM [HGD_Y334_R330S_YF]	0.633	0.818	0.981	0.545	0.457	0.377	0.931	0.767	0.971	0.483	0.465	0.535	0.513	0.632	0.623	0.89
GLETSYIEDNC [PAH_Y24_Q20L]	0.539	0.617	0.726	0.569	0.487	0.525	1.04	0.744	0.873	0.585	0.466	0.497	0.655	0.564	0.513	0.937
RYVTRHIYNRE [HLA-DQB1_Y62_Y62H]	0.414	0.64	0.718	0.795	0.662	0.73	0.966	0.751	0.589	0.525	0.469	0.857	0.291	0.525	0.874	0.777
RRAKGYPIDLY [ITGB2_Y125]	0.466	0.627	0.707	0.87	1.18	0.787	1.07	0.868	1.34	0.684	0.73	1.17	0.718	0.889	1.28	1.29
SVTCTYSPALD [TP53_Y126_N131D]	0.599	0.532	1.01	0.816	0.656	0.641	1.74	1.24	1.51	0.882	0.821	0.466	0.616	1.01	0.745	1.76
VSLEAYCKHKY [RXRA_Y403_A398V]	0.421	0.627	0.62	0.584	0.579	0.656	1.01	0.96	1.05	0.7	0.541	0.559	0.611	0.662	0.46	1.24
EILDVYIFLGP [GAA_Y340_G335E]	0.46	0.793	0.965	0.889	0.742	0.934	1.4	0.649	1.37	0.912	0.532	1.15	2	1.79	0.962	1.27
PQEVMYAQLDH [KIR3DL2_Y398_T397M]	1.21	6.57	0.748	0.621	5.19	6.26	1.62	7.37	1.71	1.06	4.04	6.77	2.69	2.2	7.15	1.52
KSEMSYIDGEK [SORBS1_Y485]	0.467	0.68	0.697	0.999	0.469	0.502	0.899	0.586	0.736	0.72	0.493	0.479	0.659	0.592	0.449	0.848
AGQERYRAITS [RAB11B_Y73]	0.404	0.412	0.938	0.53	0.527	0.554	0.641	0.605	0.704	0.413	0.469	0.487	0.613	0.466	0.512	0.627
RGSQQYRALTV [TUBB8_Y281]	0.535	0.919	1.04	0.518	0.866	0.325	0.862	0.84	0.77	0.368	0.584	0.516	0.428	0.364	0.594	0.633
SKDSAYVTWEP	0.654	0.726	0.975	0.576	1.32	1.5	0.988	0.702	0.914	0.518	1.65	1.14	1.48	1.06	1.59	0.971
WKGSWYSMRKM [FGB_Y475]	1.97	1.48	1.78	0.513	0.523	0.49	1.07	0.71	0.847	0.588	0.473	0.499	0.676	0.716	0.538	1.11
HVLEEYKPKQG [SAXO2_Y37_P34L]	0.47	0.938	0.762	0.683	0.646	1.19	0.5	0.698	1.36	0.487	0.552	0.57	0.656	1.39	0.424	0.834
